Laboratory results reported in US20260103529A1, “Amino Acid Sequences Directed Against the Melanocortin 4 Receptor and Polypeptides Comprising the Same for the Treatment of MC4R-Related Diseases and Disorders” (Confo Therapeutics N.V., priority 2022, published 2026).

Molecular target: human wild type MC4R (Homo sapiens, UniProt P32245)
Experiment: cAMP signaling assay (Lance Ultra HTRF)
Format: cell-based
Set-up: double Twin Strep tag; expressed in transfected cells; host or cells: HEK293
Conditions: purified nanobodies, human MC4R-overexpressing HEK293 cells, read-out: potencies, MC4R-mediated dose-dependent cAMP accumulation
Description: To confirm MC4R activation, dose-dependent nanobody-induced cAMP signaling was assessed (Lance Ultra HTRF). […] Binding of pN162 to the human melanocortin receptor subtypes MC1R, MC2R, MC3R, MC4R or MC5R transiently expressed as Flag-tagged receptors in HEK293T cells was assessed by flow cytometry.

Sequence of human wild type MC4R (P32245 whole entry): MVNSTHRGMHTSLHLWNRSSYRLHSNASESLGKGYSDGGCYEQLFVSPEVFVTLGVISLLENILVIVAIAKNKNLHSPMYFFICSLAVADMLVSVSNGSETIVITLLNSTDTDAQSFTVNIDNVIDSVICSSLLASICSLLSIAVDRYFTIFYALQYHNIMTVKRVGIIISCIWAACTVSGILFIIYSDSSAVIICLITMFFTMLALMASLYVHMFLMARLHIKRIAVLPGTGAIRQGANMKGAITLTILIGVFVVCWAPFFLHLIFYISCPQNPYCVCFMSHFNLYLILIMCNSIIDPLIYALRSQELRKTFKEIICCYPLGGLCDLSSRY

Row | EC50 [nM] | Molecule
1 | 0.7 | pN152: agonistic anti-MC4R VHH, SEQ ID NO: 183 (protein, pN0152) VHH: QVQLVESGGGLVQPGGSLKLSCAASGSISSKSDWGWYRQAPGKERELVAQITSGGNLKYASAVTGRFTISRDNAKNTVNLLMSRLKPEDTAIYFCNARTWRLVRYYDYWGQGTQVTVSS
2 | 393 | pN161: agonistic anti-MC4R VHH, SEQ ID NO: 314 (protein, PN0161) VHH: QVQLVESGGGLVQAGGSLRLSCAASGSISRTNGMGWYRQAPGKQRELVAAITTGGSTNYANSAKGRFTISRDNAKNTVYLQMNSLKPEDTAVYYCNARYGSSSFRWGDFEVWGQGTQVTVSS
